# Laboratory results from the RNAGym collection of RNA variant scans (doi:10.7554/elife.90254).
# B1: LINE1-full (parent)
# chain: UACGUAGGUGGUUUUCCCCUGAUAGUGCUAAGGGGGCCUGGAAGUUUGGACUGGGCAGAGCUCAACACAGCGUGGCAAAGUGGCUGUGGCUAGACUGCCUCUCUGGAUUCCUCGUCACUCAGCAGGGCAUCUCUGAGAGAAAUGCC
# B2: OR4K15 (parent)
# chain: GUUAACGGUCAUAGGCCAUGGAAACUAGGAGCACCAUUUCGCUGCCAGUGAAGAAAUGAACAAAGAAAAUCUGGGCCAGGCAGGCAUCAAAAGAAAUAGUCUUGCGCUCAACCAGAAAGUCUGUAAUCAUUUUAAGGGUA
# Variants of: B1
# Assay: self-cleavage, relative activity (ratio to wild type); higher = more cleavage; in vitro, sequencing; the parent is a self-cleaving ribozyme
row,Variant,self-cleavage
1,G137U U143C,1.04
2,A138G A141G,1.25
3,A138G A141U,1.43
4,A138G A142G,1.39
5,A138G C146U,1.32
6,A138G U143A,1.45
7,A138U A140G,1.2
8,A138U A142C,2.14
9,A138U U143C,1.23
10,A138U U143G,1.5
11,G139A,0.89
12,G139A A141G,1.58
13,G139C,1.53
14,G139U,1.31
15,G139U A140G,1.23
16,A140C,0.65
17,A140C A141G,0.41
18,A140G,1.07
19,A140G A141G,0.53
20,A140G A142C,1.4
21,A140G A142G,1.17
22,A140G C145A,1.28
23,A140G C145U,0.62
24,A140G G144A,0.92

row,Variant,self-cleavage
1,A140G U143A,0.79
2,A140U,1.26
3,A140U A142G,1.73
4,A140U C145U,1.63
5,A141C A142C,0.71
6,A141C U143A,1.79
7,A141G A142G,1.45
8,A141G A142U,1.36
9,A141G C146U,1.31
10,A141G U143C,1.31
11,A141U A142G,1.79
12,A141U U143A,0.6
13,A142C,0.53
14,A142G,1.21
15,A142G C145U,1.11
16,A142G U143G,0.16
17,A142U,1.22
18,U143A C145U,1.39
19,U143A G144A,1.4
20,U143C G144A,2.03
21,C145A,0.95
22,C145G,0.55
23,C145U,1.32

# Variants of: B2
# Assay: as above
row,Variant,self-cleavage
1,C81A G104A,0.67
2,A51G U72C,0.38
3,U122C A140G,1.32
4,A59U A117G,1.72
5,A33G U72C,0.12
6,A117G A118U,1.72
7,A67G C88A,1.16
8,A30U,1.24
9,A4G A92G,1.18
10,A22G G44A,1.2
11,A52G C113U,0.14
12,A68C U131C,0.94
13,A11G A68U,1.23
14,A89G A91U,2.19
15,U39C A117U,1.08
16,U39C C85G,0.99
17,A92U U120C,1
18,A18G U19G,0.71
19,U19A A140G,1.75
20,A51C A95U,1.79
21,A5G G104A,0.03
22,U2C A90C,1.23
23,U26C A116G,1.14
24,A90G A134G,1.35

row,Variant,self-cleavage
1,C40A A89G,1.44
2,A18G G93U,2.69
3,A36G G106A,0.02
4,U49A A63G,1.46
5,A60U U133C,2.17
6,U72G A114C,2.51
7,U124C U127C,0.84
8,A27G A92G,1.48
9,A86G A111G,0.02
10,G74A A125G,0.05
11,A47C,0.88
12,U39C G48A,1.14
13,U2G A68G,0.43
14,A27G U103C,0.76
15,U70C U124A,0.17
16,A52G U108C,0.02
17,A68G A86G,1.41
18,U57A A59U,2.2
19,A52U A59G,1.48
20,U26A C34U,1.99
21,G80A A96G,0.18
22,U39C U132C,1.12
23,G31A A69U,2.21
24,A69G A134G,1.17

row,Variant,self-cleavage
1,A11C,1.41
2,U19A A94G,1.89
3,A22G A54G,0.84
4,U37C A129G,0.32
5,G28A A98G,0.39
6,U26A U102C,1.69
7,G48U A56G,1.4
8,A90G U102A,0.09
9,G15U A68C,1.71
10,C6U A125C,1
11,U38C U102A,1.44
12,A24G C34U,1.69
13,A59G C85U,0.51
14,C32U A95G,2.11
15,A36U U72A,0.37
16,G104A A110U,0.02
17,A82G U108C,0.02
18,A78U U87C,0.31
19,G84A A117G,2.38
20,U9C U43C,1.48
21,U39C A66G,0.08
22,U19C A135G,2.08
23,A30G U132C,1.36
24,C46U A86G,1.41

row,Variant,self-cleavage
1,A5G G7U,1.05
2,U87C A126U,1.18
3,A86U U120C,1.11
4,A111U U120C,0.03
5,A62U C88U,2.34
6,U37C U124A,0.21
7,C34U A111G,0.04
8,C40U U97C,0.94
9,U43A A96U,1.72
10,U57A U102C,0.78
11,A24G A129G,1.15
12,A22U A96G,1.57
13,G41C U43C,2.19
14,U19C U70C,0.7
15,A5G A62G,0.59
16,A69U G137U,2.12
17,U49A U87A,1.78
18,U49A A117G,0.49
19,A5U A47C,1.29
20,A18U A55G,1.85
21,G41C,1.78
22,C10U U103C,1.16
23,U12C U97C,0.65
24,U2A A68U,0.46

row,Variant,self-cleavage
1,A30G,1.28
2,U26C U139A,1.49
3,A60G U120C,0.82
4,G31A A59G,1.04
5,U12C A89U,1.82
6,A66G U120C,1.71
7,U72A A82U,0.15
8,A11G U72A,0.38
9,C40U A126U,1.31
10,A67U A125G,1.2
11,U9A U97A,1.03
12,A24U A27U,1.14
13,A51G A59U,1.74
14,U37C G80A,0.21
15,C32U U70C,0.69
16,A33G A94U,0.59
17,A62G A111G,0.02
18,U49C A95G,1
19,G1C A111G,0.01
20,A5G U124C,0.58
21,A18G A134G,1.8
22,U57C U102C,1.38
23,A24G A52G,1.44
24,C85A C109A,0.19

row,Variant,self-cleavage
1,A11G U26C,1.27
2,A64G U122A,0.95
3,A110G A126G,0.1
4,A92G G106U,0.01
5,A62G A91G,1.12
6,G44U,1.91
7,A22G U70C,0.91
8,U2A U9C,1.52
9,A36G G119C,1.4
10,A11G U39C,0.96
11,G28A U131C,0.99
12,U39C C107A,0.03
13,G79A A94U,0.15
14,A54G C81U,0.19
15,U2C A56G,1.12
16,C42U G44A,1.51
17,U12A A96U,1.67
18,A11G U139C,2.37
19,U9C G80A,0.34
20,U9G A91U,1.26
21,A63G U87A,2.02
22,A27G A116G,0.99
23,A18U A114U,0.08
24,A96G A135G,1.91

row,Variant,self-cleavage
1,U2A A90U,1.25
2,U127A A140U,1.25
3,U57C A135G,1.34
4,A24U A135U,0.83
5,U133C A140G,1.34
6,A27U U39A,1.49
7,A5C A52G,0.46
8,A24G A33U,1.73
9,A59G G73A,0.17
10,A62G U124C,0.94
11,A27G A30G,0.69
12,A23G A92G,1.17
13,A68G U130A,0.91
14,U72C A95U,0.35
15,A67U A118U,0.53
16,C10U U131C,0.47
17,A11G A52C,0.82
18,G21A A135C,1.25
19,A55G A114G,0.32
20,U72C U102A,0.07
21,U43A U132C,1.86
22,A62U A68G,1.4
23,A126G U127A,1.77
24,U72G C101A,0.1

row,Variant,self-cleavage
1,U97A U132C,0.95
2,C40U U132A,1.27
3,A27U A118G,1.21
4,A5G U103C,0.27
5,A30G G123U,0.53
6,A11U A23G,0.87
7,A60G G99U,0.38
8,A27G C105U,0.24
9,A4G G65C,1.18
10,U103C A126G,0.35
11,A51G A66G,1.5
12,U19A A126C,0.55
13,A114G A134G,0.63
14,A62G G138A,1.04
15,U57C A114U,0.05
16,U19C U120C,0.77
17,A22G U37A,2.01
18,C77U A89G,2.1
19,A91G A118G,0.94
20,A23U A78G,0.31
21,A69G A89C,1.65
22,A51G A129C,0.98
23,U2C A18G,0.6
24,U19C A64G,1.09

row,Variant,self-cleavage
1,C85U U120G,0.64
2,U43C A118U,0.87
3,C35U U108A,0.02
4,A78G U100A,0.04
5,U9C A82U,0.35
6,U2C A135G,1.32
7,A60C A135U,1.44
8,U38A A47U,1.31
9,A56G A78C,0.22
10,C45U,1.72
11,A36C G104A,0.03
12,A64G A95G,1.12
13,U2A U70C,0.67
14,G41U U122C,1.34
15,A52G A55C,1.29
16,A30G G137A,1.06
17,A36C U130C,2.1
18,A5U A11G,1.49
19,C32U A86G,1.82
20,U108C G137A,0.01
21,A5G U49C,0.97
22,A30G A89C,0.8
23,A68G C101G,0.08
24,A5U U100G,1.03

row,Variant,self-cleavage
1,A24G U39C,1.35
2,A51U U131A,1.32
3,A90G A91G,0.55
4,A47U U103G,0.03
5,U2C A52G,1.19
6,U43C U87C,0.35
7,A116G A117U,0.44
8,A36U U97A,2.69
9,A52U A134U,1.41
10,U87A U133G,1.25
11,A64G A68G,1.54
12,U43C U131C,1.36
13,U9A U43A,0.83
14,G41A A56G,2.07
15,U72C U108A,0.07
16,U72C G138A,0.49
17,A56G A92U,2.54
18,A51C U57G,1.26
19,U39A U127C,0.28
20,A114G U120A,0.2
21,G74A A96C,0.14
22,A129G A134U,1.02
23,U43C A55G,1.07
24,A62U A67C,1.64

row,Variant,self-cleavage
1,A56G A110G,0.07
2,A62G U130C,1.15
3,A52G U120A,2.19
4,G14U A24G,1.23
5,A47U U102A,0.45
6,U2C G104C,0.1
7,A55G A63C,0.12
8,G58A,1.13
9,A63G U72G,0.29
10,A110G U124C,0.14
11,A67U A96G,1.65
12,A51C U72A,0.19
13,C112G U122A,0.05
14,U130C U131C,1.01
15,A5U U12A,0.69
16,G65U A90G,0.96
17,U9G A95G,0.99
18,C76U U108A,0.01
19,U87C U130G,0.15
20,U43G A51G,2.35
21,U9G U100C,1.91
22,G8C U122C,1.12
23,U49A,1.05
24,C32U U57C,1.07

row,Variant,self-cleavage
1,U19C A91U,1.37
2,A64G A117G,1.7
3,U102A A117G,1.12
4,A90G A96U,1.79
5,U70A A82U,0.24
6,U108A U139A,0.04
7,U38A A66G,1.31
8,A23C A96G,1.33
9,U122C A125G,0.38
10,A91G A98G,0.26
11,U2C A13U,1.78
12,A60G U102C,1.4
13,U38C A69U,0.9
14,C16U A117G,1.84
15,A68G A82U,0.22
16,A33G U87A,0.66
17,C10A A47U,1
18,A55G U57C,1.13
19,C105U U122A,0.27
20,A27G U102A,0.63
21,A18G C85U,0.98
22,G58A A96G,1.84
23,U9G U102C,2.28
